In patent publication US20260092093A1 (TJ BIOPHARMA SHANGHAI, published 2026):

T1: hIL-18 receptor (hIL-18Rα and hIL-18Rβ) (human, UniProt Q13478 19-541; O95256 20-599)
T1 sequence (looked up) 1: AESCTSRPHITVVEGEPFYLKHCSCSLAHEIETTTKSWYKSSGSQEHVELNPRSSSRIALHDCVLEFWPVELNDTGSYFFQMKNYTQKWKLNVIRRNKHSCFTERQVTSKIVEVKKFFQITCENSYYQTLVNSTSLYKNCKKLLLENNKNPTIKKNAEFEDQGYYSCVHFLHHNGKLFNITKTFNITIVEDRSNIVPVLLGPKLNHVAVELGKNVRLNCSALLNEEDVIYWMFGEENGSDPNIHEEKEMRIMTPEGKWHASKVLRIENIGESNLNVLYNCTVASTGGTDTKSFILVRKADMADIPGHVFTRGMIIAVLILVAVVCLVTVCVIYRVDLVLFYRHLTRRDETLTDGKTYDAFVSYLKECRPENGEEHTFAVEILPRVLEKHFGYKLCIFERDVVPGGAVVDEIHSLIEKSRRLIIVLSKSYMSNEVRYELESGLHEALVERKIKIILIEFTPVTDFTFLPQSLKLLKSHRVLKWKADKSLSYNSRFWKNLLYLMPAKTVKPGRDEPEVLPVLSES
T1 sequence (looked up) 2: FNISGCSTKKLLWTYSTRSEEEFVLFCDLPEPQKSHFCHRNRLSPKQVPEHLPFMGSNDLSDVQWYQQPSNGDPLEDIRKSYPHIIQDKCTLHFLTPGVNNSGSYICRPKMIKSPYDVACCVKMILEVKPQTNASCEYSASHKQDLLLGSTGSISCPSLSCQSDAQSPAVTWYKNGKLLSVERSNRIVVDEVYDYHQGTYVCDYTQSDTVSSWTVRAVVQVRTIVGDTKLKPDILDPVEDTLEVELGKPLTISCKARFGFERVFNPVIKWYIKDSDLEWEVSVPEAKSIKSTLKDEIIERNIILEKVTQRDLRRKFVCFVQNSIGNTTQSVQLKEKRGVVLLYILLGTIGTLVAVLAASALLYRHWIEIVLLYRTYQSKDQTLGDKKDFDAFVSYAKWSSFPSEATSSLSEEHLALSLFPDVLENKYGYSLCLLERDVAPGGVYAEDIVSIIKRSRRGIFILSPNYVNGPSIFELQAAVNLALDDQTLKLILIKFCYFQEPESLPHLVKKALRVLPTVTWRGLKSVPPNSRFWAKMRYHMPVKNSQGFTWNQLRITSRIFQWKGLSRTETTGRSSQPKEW

T2: hIL-18BP-hFc (human, UniProt O95998 31-194, limits assumed)
T2 sequence (looked up): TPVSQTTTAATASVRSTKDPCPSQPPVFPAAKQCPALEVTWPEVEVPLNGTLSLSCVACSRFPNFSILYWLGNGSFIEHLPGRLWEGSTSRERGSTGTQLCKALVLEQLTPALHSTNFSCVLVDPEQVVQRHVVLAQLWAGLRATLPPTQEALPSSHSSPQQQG


Tests used:
[1] = biological target: T1, hIL-18 receptor (hIL-18Rα and hIL-18Rβ); assay: cell-based or functional assay
[2] = biological target: T2, hIL-18BP-hFc; assay: cell-based or functional assay

| Binder | EC50 (nM), hIL-18 reporter assay [1] | EC50 (nM) in the Presence of 1 µg/mL hIL-18BP-hFc, hIL-18 reporter assay [2] | EC50 Fold Change (+BP/-BP), hIL-18 reporter assay [2] |
| --- | --- | --- | --- |
| IL-18 variant polypeptide MM6 (ligand) YFAKLYSKLSVIRNLNDQVLFIDQGNRPLFEDMTDSDCRDNAPRTIFIISMYKRSSLRGMAVTISVKCEKISTLSCENKIISFKEMNPPDAIKDTKSDIIFFQRSVPGHDNKMQFESSSYEGYFLACEKERDLFKLILKKEDELGDRSIMFTVQNED | 1 nM | 1.5 nM | 1.5 fold |
| IL-18 variant polypeptide WM2 (ligand) YFPKLRSKLSVIRNLNDQVLFIDQGNRPLFEDMTDSDCRDNAPRTIFIISMYKDSQPRGMAVTISVKCEKISTLSCENKIISFKEMNPPDNIKDTESDIIFFQRSVPGHDNKMQFESSSYEGYFLACEKERDLFKLILKKEDELGDRSIMFTVQNED | 10.7 nM | 14.2 nM | 1.32 fold |
| IL-18 variant polypeptide M1 (ligand) YFPKLKSKLSVIRNLNDQVLFIDQGNRPLFEDMTDSDCRDNAPRTIFIISMYKHSDRRGMAVTISVKCEKISTLSCENKIISFKEMNPPDVIKDTKSDIIFFQVSVPGHDNKMQFESSSYEGYFLACEKERDLFKLILKKEDELGDRSIMFTVQNED | 1.45 nM | 3.45 nM | 2.38 fold |
| IL-18 variant polypeptide M2 (ligand) YFSKLKSKLSVIRNLNDQVLFIDQGNRPLFEDMTDSDCRDNAPRTIFIISMYKWSPDRGMAVTISVKCEKISTLSCENKIISFKEMNPPDGIKDTKSDIIFFQTSVPGHDNKMQFESSSYEGYFLACEKERDLFKLILKKEDELGDRSIMFTVQNED | 0.27 nM | 0.19 nM | 0.7 fold |
| IL-18 variant polypeptide M3 (ligand) YFPKLKSKLSVIRNLNDQVLFIDQGNRPLFEDMTDSDCRDNAPRTIFIISMYKWSHVRGMAVTISVKCEKISTLSCENKIISFKEMNPPDAIKDTKSDIIFFQYSVPGHDNKMQFESSSYEGYFLACEKERDLFKLILKKEDELGDRSIMFTVQNED | 0.24 nM | 0.37 nM | 1.54 fold |
| IL-18 variant polypeptide M4 (ligand) YFPKLKSKLSVIRNLNDQVLFIDQGNRPLFEDMTDSDCRDNAPRTIFIISMYKWSGVRGMAVTISVKCEKISTLSCENKIISFKEMNPPDVIKDTKSDIIFFQFSVPGHDNKMQFESSSYEGYFLACEKERDLFKLILKKEDELGDRSIMFTVQNED | 0.018 nM | 0.025 nM | 1.39 fold |
| IL-18 variant polypeptide M5 (ligand) YFEKLTSKLSVIRNLNDQVLFIDQGNRPLFEDMTDSDCRDNAPRTIFIISMYKWSPWRGMAVTISVKCEKISTLSCENKIISFKEMNPPDVIKDTKSDIIFFQTSVPGHDNKMQFESSSYEGYFLACEKERDLFKLILKKEDELGDRSIMFTVQKED | 0.22 nM | 0.21 nM | 0.95 fold |
| IL-18 variant polypeptide M6 (ligand) YFPKLRSKLSVIRNLNDQVLFIDQGNRPLFEDMTDSDCRDNAPRTIFIISMYKWSTPRGMAVTISVKCEKISTLSCENKIISFKEMNPPDVIKDTKSDIIFFQTSVPGHDNKMQFESSSYEGYFLACEKERDLFKLILKKEDELGDRSIMFTVQNED | 0.18 nM | 0.14 nM | 0.78 fold |
| IL-18 variant polypeptide M7 (ligand) YFPKLRSKLSVIRNLNDQVLFIDQGNRPLFEDMTDSDCRDNAPRTIFIISMYKHSTARGMAVTISVKCEKISTLSCENKIISFKEMNPPDAIKDTKSDIIFFQRSVPGHDNKMQFESSSYEGYFLACEKERDLFKLILKKEDELGDRSIMFTVQNED | 0.15 nM | 0.25 nM | 1.67 fold |
| IL-18 variant polypeptide M9 (ligand) YFPKLRSKLSVIRNLNDQVLFIDQGNRPLFEDMTDSDCRDNAPRTIFIISMYKWSRARGMAVTISVKCEKISTLSCENKIISFKEMNPPDSIKDTKSDIIFFQSSVPGHDNKMQFESSSYEGYFLACEKERDLFKLILKKEDELGDRSIMFTVQNED | 0.43 nM | 0.33 nM | 0.77 fold |
| IL-18 variant polypeptide M10 (ligand) YFPKLRSKLSVIRNLNDQVLFIDQGNRPLFEDMTDSDCRDNAPRTIFIISMYKQSLWRGMAVTISVKCEKISTLSCENKIISFKEMNPPDSIKDTKSDIIFFQRSVPGHDNKMQFESSSYEGYFLACEKERDLFKLILKKEDELGDRSIMFTVQNED | 0.29 nM | 0.17 nM | 0.59 fold |
| IL-18 variant polypeptide M14 (ligand) YFNKLKSKLSVIRNLNDQVLFIDQGNRPLFEDMTDSDCRDNAPRTIFIISMYKPSSSRGMAVTISVKCEKISTLSCENKIISFKEMNPPDRIKDTKSDIIFFQASVPGHDNKMQFESSSYEGYFLACEKERDLFKLILKKEDELGDRSIMFTVQNED | 0.04 nM | 0.03 nM | 0.75 fold |
| IL-18 variant polypeptide M16 (ligand) YFPKLRSKLSVIRNLNDQVLFIDQGNRPLFEDMTDSDCRDNAPRTIFIISMYKSSRNRGMAVTISVKCEKISTLSCENKIISFKEMNPPDGIKDTKSDIIFFQSSVPGHDNKMQFESSSYEGYFLACEKERDLFKLILKKEDELGDRSIMFTVQNED | 0.29 nM | 0.34 nM | 1.17 fold |
| IL-18 variant polypeptide M18 (ligand) YFPKLRSKLSVIRNLNDQVLFIDQGNRPLFEDMTDSDCRDNAPRTIFIISMYKSSRRRGMAVTISVKCEKISTLSCENKIISFKEMNPPDGIKDTKSDIIFFQSSVPGHDNKMQFESSSYEGYFLACEKERDLFKLILKKEDELGDRSIMFTVQNED | 0.58 nM | 0.56 nM | 0.97 fold |
| IL-18 variant polypeptide M19 (ligand) YFPKLKSKLSVIRNLNDQVLFIDQGNRPLFEDMTDSDCRDNAPRTIFIISMYKHSEQRGMAVTISVKCEKISTLSCENKIISFKEMNPPDAIKDTKSDIIFFQRSVPGHDNKMQFESSSYEGYFLACEKERDLFKLILKKEDELGDRSIMFTVQNED | 0.66 nM | 0.31 nM | 0.47 fold |
| IL-18 variant polypeptide M20 (ligand) YFPKLRSKLSVIRNLNDQVLFIDQGNRPLFEDMTDSDCRDNAPRTIFIISMYKSSRSRGMAVTISVKCEKISTLSCENKIISFKEMNPPDGIKDTKSDIIFFQSSVPGHDNKMQFESSSYEGYFLACEKERDLFKLILKKEDELGDRSIMFTVQNED | 2.2 nM | 0.5 nM | 0.23 fold |
| IL-18 variant polypeptide M22 (ligand) YFPKLRSKLSVIRNLNDQVLFIDQGNRPLFEDMTDSDCRDNAPRTIFIISMYKYSRGRGMAVTISVKCEKISTLSCENKIISFKEMNPPDKIKDTKSDIIFFQSSVPGHDNKMQFESSSYEGYFLACEKERDLFKLILKKEDELGDRSIMFTVQNED | 7.2 nM | 7.5 nM | 1.04 fold |
| IL-18 variant polypeptide M23 (ligand) YFPKLRSKLSVIRNLNDQVLFIDQGNRPLFEDMTDSDCRDNAPRTIFIISMYKYSTRRGMAVTISVKCEKISTLSCENKIISFKEMNPPDNIKDTKSDIIFFQRSVPGHDNKMQFESSSYEGYFLACEKERDLFKLILKKEDELGDRSIMFTVQNED | 0.8 nM | 1.4 nM | 1.75 fold |
